These results are taken from article PMC8079448, “Structure of the SWI/SNF complex bound to the nucleosome and insights into the functional modularity” (Cell Discovery, 2021).

For this assay, the target named is T1, Snf5 (wild type, subunit of the recombinant SWI/SNF complex) (yeast, UniProt P18480 1-905).
T1 construct: Snf5, yeast, wild type; also called WT; source: overexpressed in E. coli (modified EcoExpress system), in the reconstituted complex
As to the kind of experiment: cryo-EM structure; recombinant yeast SWI/SNF complex in complex with the mononucleosome; overall resolution 6.9 Å, local 3.1 Å at the nucleosome bound with the FH of Snf5, local 3.6 Å at the SRM. The conditions noted are these: both partners purified.

T1 sequence (P18480 whole entry, one chain of several): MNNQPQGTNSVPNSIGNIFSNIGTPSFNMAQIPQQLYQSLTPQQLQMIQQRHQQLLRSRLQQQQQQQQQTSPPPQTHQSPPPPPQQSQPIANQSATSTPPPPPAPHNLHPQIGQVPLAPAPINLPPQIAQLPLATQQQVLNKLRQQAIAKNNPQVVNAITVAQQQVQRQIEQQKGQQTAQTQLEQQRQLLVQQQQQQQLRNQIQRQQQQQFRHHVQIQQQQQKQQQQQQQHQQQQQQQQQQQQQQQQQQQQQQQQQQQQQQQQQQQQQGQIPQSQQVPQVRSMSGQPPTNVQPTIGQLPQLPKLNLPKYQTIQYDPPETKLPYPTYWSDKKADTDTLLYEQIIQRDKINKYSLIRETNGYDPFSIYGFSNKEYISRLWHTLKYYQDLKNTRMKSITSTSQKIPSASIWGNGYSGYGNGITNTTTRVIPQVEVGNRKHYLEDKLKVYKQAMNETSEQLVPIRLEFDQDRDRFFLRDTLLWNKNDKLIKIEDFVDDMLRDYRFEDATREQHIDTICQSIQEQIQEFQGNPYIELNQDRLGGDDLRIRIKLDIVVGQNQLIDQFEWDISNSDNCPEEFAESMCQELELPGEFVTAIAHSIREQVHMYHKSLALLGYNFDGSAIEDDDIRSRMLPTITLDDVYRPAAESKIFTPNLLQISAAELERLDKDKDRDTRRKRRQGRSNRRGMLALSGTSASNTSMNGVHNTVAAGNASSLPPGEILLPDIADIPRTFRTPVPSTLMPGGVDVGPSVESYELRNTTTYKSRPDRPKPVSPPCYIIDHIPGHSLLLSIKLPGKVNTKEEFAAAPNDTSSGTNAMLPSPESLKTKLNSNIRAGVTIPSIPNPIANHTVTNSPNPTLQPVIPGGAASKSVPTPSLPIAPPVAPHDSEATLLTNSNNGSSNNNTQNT

B1: Swi3 (natural protein, yeast)
chain: MENTLGEGSTVNASVDVDQHGNDNNSDSNANAAVAGVANTDTAGEESQQQDESLKDEATVPNTRDAESEAITVTAKQQPTMQANKLDSQETPSTEESRAQNVFGQDNEDSDNLFGETESSVSNNEANTPSIPTNPVDNENNKPAIKEDSTIQDSNGDVKNMEDVKIQKEEEPENNTVIEGVKEESQPDENTKEMDEVEEDDEDDDQPMISPDNSIFGDTKSESKQLGNTSSVANTPSEIPDAHKAEQEDIIEKTESVDKKVDSGEERNEQEREIMNDHSKSANPKKTTITRVEPETFEIPQAHEIVIPSYSKWFNLEKIHSIEVQSLPEFFTNRIPSKTPEVYMRYRNFMVNSYRLNPNEYFSVTTARRNVSGDAAALFRLHKFLTKWGLINYQVDSKLLPKNIEPPLTSQYSTRHDAPRGLFPFESYKPSVQLPDMAKLKKMMNTSDSESTLYKYLKESKRKYDEITHPPSTTDDENGDKNDNGGKMNNEVSTSTSMTGDANLLEEGETSRPLKKVKILEQIDENWSKEDLQKLLKGIQEFGADWYKVAKNVGNKSPEQCILRFLQLPIEDKFLYGDGNGKGDNDNGLGPLKYAPHLPFSKSENPVLSTIAFLVGLVNPKTVQSMTQRAIQSAESIKSQKEEISDQKPIEHIKEGSEIAISSLGYRSHIFATNEERQMNFLTNELIRLQMEKLDAKLNHLKKLEKFMELERKTLERQQENLLIQRLNFNQNSSKIVNVLSKCLNLISDSNINNSSVAEKEEIRSQIDHFKSMLSKPETLSIGKNPFNKPNIETGENHNGQSISNENDVKPISIEAPQFYRYWSA
notes: Swi3, yeast; source: overexpressed in E. coli (modified EcoExpress system), in the reconstituted complex
On to B1, for which the binding result is “binds”.

B2: Swp82 (natural protein, yeast)
chain: MLGEDEGNTVLEKGNNPSVKQGEVGAVFIVPKILIREHERVILKQILQILDQDELVQPPLDKFPYKKLELPKYIDELKTRDATNTSYKMIQLDAYGEKKVGSNGELFGGRHYLFNTFTFTAHMGVLLVLLQDVIKVLYQSNATHDEDEFIVQHDQILVMETSEEQTKFLAKNGVIPEESKGSFKYITARSAFVEFGASVIAGGQRIVDDYWESLAKKQNLSSHQRVFKLSTNLISKISLLRPSFQNNRISNANEISANTNNTCTISTSKFESQYPIVTEQPSAEIREAYIENFAKGEHISAIVPGQSISGTLELSAQFRVPRYHSKNSFQQALQMKAMDIPIGRHEELLAQYESQAPDGSASISLPNHIPSVNPSNKPIKRMLSSILDINVSSSKNKKSEENEMIKPMNKGQHKNNTSLNINGWKFESLPLKSAENSGKQQYYRGLPLYEKNTLLERLKQLTPNEIKELEHLHDAVFVNTGLQNVRKVRTKKWKKYWQYKAGIPIGLKRSQLDEFKNKYLKDVLAQTSVTTNFNEITNTDETITTKRVPNPNFLGNCNIKDFKPPYIYSHVNKVPQNVAGDKTAVKLDTEVKNTNANPVVATDPVAAKPDNLANFSNEVAMNN
notes: Swp82, yeast; source: overexpressed in E. coli (modified EcoExpress system), in the reconstituted complex
As for B2, the binding result is on record as “binds”.
